Laboratory results taken from the supplement of paper PMC10065799, “High-throughput profiling of sequence recognition by tyrosine kinases and SH2 domains using bacterial peptide display” (eLife, 2023).
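Note: 11-residue human phosphosite peptides and single-mutation variants displayed on the E. coli surface, counted by deep sequencing, each peptide's frequency after selection divided by its frequency in the unselected input library; frequency after pTyr selection over input frequency; kinase dosed for 20-30% of maximal phosphorylation in three min.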

The sequences below were run against Hck (UniProt P08631) (assay: phosphorylation enrichment, bacterial display (enrichment ratio); higher = better substrate or ligand; peptides without Tyr show the background).
Sequence of Hck (P08631 whole entry, looked up): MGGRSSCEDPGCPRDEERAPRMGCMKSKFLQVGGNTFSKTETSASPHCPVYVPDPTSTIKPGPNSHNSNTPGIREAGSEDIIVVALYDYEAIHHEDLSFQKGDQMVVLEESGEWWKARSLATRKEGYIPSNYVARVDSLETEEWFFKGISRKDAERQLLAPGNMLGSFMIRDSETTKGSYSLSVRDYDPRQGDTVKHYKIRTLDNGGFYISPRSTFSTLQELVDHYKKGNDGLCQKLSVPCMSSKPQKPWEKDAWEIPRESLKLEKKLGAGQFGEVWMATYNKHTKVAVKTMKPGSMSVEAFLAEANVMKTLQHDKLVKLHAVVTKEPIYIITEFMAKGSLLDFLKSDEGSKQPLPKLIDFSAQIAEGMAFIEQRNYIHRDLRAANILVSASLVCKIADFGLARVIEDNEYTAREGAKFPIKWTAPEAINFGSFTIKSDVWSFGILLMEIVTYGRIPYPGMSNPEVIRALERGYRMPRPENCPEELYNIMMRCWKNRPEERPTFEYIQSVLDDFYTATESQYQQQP
For EQLGEYKFQNA [ALB_Y425], the phosphorylation enrichment was 0.415.
QITQVCGFFDE [PPP2CA_Y127_Y127C_YF] showed a phosphorylation enrichment of 0.645.
RHTRSYDFTEG [FGF7_Y56_M59T_YF] gave a phosphorylation enrichment of 0.387.
In the case of RLSVDYSKKSK [TUBA3E_Y161], the phosphorylation enrichment is reported as 0.442.
Work on LDFNEYFRGLN [HPRT1_Y198_D201G_YF] yielded a phosphorylation enrichment of 0.873.
Sequence NFFDTCIKTCL [IQGAP2_Y1445_Y1445C_YF] has a phosphorylation enrichment of 0.407.
In the case of IGDENYGEGSS [ACO2_Y665], the phosphorylation enrichment is reported as 0.59.
For GIVEEYQLPFF [BMPR1A_Y453_YF], the phosphorylation enrichment was 0.604.
MCITRYERESQ [PRNP_Y218_Q217R] was tested, and the phosphorylation enrichment was 0.469.
KREPQYSSHSS [SIPA1L3_Y1265_G1261R] gave a phosphorylation enrichment of 0.362.
For TTKGSYSLSVR [HCK_Y180], the phosphorylation enrichment was 0.433.
AAYNKYDQERF [CDC73_Y293_R292K] was tested, and the phosphorylation enrichment was 0.299.
For VSFGEYRFRSV [CFTR_Y515_D513G_YF], the phosphorylation enrichment was 0.469.
Sequence LAARFYNWVCF [FLT4_Y1231_S1235C_YF] has a phosphorylation enrichment of 0.967.
Sequence CTTVHYNFMCN [TP53_Y234_I232V_YF] has a phosphorylation enrichment of 0.445.
FSPFDYQPCLA [TNS1_Y798_YF] gave a phosphorylation enrichment of 0.66.
Work on WFQTKYEELQV [KRT6B_Y360_I365V_YF] yielded a phosphorylation enrichment of 0.442.
For LPKDLYLISQM [LARP4_Y141_S137P], the phosphorylation enrichment was 0.891.
KLNNEHLELNY [MME_Y497_Y497H] was tested, and the phosphorylation enrichment was 0.421.
Work on CTTTHYNYMCN [TP53_Y234_I232T] yielded a phosphorylation enrichment of 0.497.
For CEAMEYPESKQ [BTK_Y511_L512P], the phosphorylation enrichment was 0.572.
RARPPYTVAAD [ANKZF1_Y572] gave a phosphorylation enrichment of 0.45.
Work on MANYMYKAGPS [MAML2_Y515] yielded a phosphorylation enrichment of 0.51.
For GQLIVYAPPEW [CNTN6_Y315_F314V], the phosphorylation enrichment was 2.22.
KVASVYEAPGF [NT5C_Y65] gave a phosphorylation enrichment of 9.28.
LKMLVYLDMSK [LRRC7_Y234] gave a phosphorylation enrichment of 0.559.
For QSSALYEDHFL [ASS1_Y83_R86H_YF], the phosphorylation enrichment was 1.57.
HFGCIYHGTLL [MET_Y1093_V1092I] gave a phosphorylation enrichment of 0.949.
ERTIEYLEEVA [HADHA_Y239] showed a phosphorylation enrichment of 0.622.
FKEVVYQAMEE [TACC3_Y684_E680K] gave a phosphorylation enrichment of 1.66.
Sequence DGQVNYEGFVQ [CALM1_Y139_E141G] has a phosphorylation enrichment of 0.553.
Work on TVHPGYGFLSE [PCCA_Y143_A138T] yielded a phosphorylation enrichment of 0.488.
ASFPLYEPAKM [MKI67_Y340] showed a phosphorylation enrichment of 8.34.

The sequences below were run against Jak2 (UniProt O60674) in the same assay as above.
Sequence of Jak2 (O60674 whole entry, looked up): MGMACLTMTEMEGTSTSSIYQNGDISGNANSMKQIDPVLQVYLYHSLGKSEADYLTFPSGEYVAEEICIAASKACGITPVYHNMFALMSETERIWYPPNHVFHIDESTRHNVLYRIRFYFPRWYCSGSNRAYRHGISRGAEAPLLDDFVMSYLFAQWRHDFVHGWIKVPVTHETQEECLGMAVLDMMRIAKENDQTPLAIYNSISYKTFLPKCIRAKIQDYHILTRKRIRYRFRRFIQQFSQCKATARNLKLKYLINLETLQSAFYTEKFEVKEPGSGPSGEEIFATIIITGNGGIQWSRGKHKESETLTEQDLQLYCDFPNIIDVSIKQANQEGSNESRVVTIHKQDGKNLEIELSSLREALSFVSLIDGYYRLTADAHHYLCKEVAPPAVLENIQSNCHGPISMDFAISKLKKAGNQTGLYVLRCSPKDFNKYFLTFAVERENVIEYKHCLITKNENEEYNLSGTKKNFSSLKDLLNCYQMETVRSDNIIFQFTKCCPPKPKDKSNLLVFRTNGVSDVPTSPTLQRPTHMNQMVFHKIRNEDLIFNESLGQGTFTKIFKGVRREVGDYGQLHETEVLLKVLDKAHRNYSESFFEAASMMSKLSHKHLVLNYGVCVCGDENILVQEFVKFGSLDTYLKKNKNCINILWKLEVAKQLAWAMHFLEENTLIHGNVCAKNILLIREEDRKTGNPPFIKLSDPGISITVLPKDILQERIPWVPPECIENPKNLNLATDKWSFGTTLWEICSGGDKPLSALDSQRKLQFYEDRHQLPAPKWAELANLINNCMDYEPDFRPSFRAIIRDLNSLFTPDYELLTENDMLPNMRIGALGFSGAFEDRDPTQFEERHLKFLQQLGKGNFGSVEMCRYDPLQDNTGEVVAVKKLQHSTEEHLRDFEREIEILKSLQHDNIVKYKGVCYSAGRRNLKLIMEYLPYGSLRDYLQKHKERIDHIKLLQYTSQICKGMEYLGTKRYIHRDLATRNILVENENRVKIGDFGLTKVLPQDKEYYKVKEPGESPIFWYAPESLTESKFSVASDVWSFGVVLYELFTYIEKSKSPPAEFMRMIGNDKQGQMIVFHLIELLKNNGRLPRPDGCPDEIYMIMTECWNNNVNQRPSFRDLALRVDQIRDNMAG
For EQLGEYKFQNA [ALB_Y425], the phosphorylation enrichment was 0.715.
QITQVCGFFDE [PPP2CA_Y127_Y127C_YF] showed a phosphorylation enrichment of 1.92.
RHTRSYDFTEG [FGF7_Y56_M59T_YF] gave a phosphorylation enrichment of 0.444.
RLSVDYSKKSK [TUBA3E_Y161] was tested, and the phosphorylation enrichment was 0.408.
LDFNEYFRGLN [HPRT1_Y198_D201G_YF] showed a phosphorylation enrichment of 1.92.
NFFDTCIKTCL [IQGAP2_Y1445_Y1445C_YF] showed a phosphorylation enrichment of 0.879.
Sequence IGDENYGEGSS [ACO2_Y665] has a phosphorylation enrichment of 1.39.
GIVEEYQLPFF [BMPR1A_Y453_YF] gave a phosphorylation enrichment of 1.34.
For MCITRYERESQ [PRNP_Y218_Q217R], the phosphorylation enrichment was 0.769.
With KREPQYSSHSS [SIPA1L3_Y1265_G1261R] the phosphorylation enrichment was 0.43.
Sequence TTKGSYSLSVR [HCK_Y180] has a phosphorylation enrichment of 1.04.
In the case of AAYNKYDQERF [CDC73_Y293_R292K], the phosphorylation enrichment is reported as 0.739.
With VSFGEYRFRSV [CFTR_Y515_D513G_YF] the phosphorylation enrichment was 0.574.
LAARFYNWVCF [FLT4_Y1231_S1235C_YF] gave a phosphorylation enrichment of 2.59.
Work on CTTVHYNFMCN [TP53_Y234_I232V_YF] yielded a phosphorylation enrichment of 0.622.
Sequence FSPFDYQPCLA [TNS1_Y798_YF] has a phosphorylation enrichment of 1.21.
Sequence WFQTKYEELQV [KRT6B_Y360_I365V_YF] has a phosphorylation enrichment of 0.788.
In the case of LPKDLYLISQM [LARP4_Y141_S137P], the phosphorylation enrichment is reported as 1.46.
KLNNEHLELNY [MME_Y497_Y497H] showed a phosphorylation enrichment of 0.619.
For CTTTHYNYMCN [TP53_Y234_I232T], the phosphorylation enrichment was 0.58.
CEAMEYPESKQ [BTK_Y511_L512P] was tested, and the phosphorylation enrichment was 1.3.
Sequence RARPPYTVAAD [ANKZF1_Y572] has a phosphorylation enrichment of 0.58.
MANYMYKAGPS [MAML2_Y515] was tested, and the phosphorylation enrichment was 0.497.
Sequence GQLIVYAPPEW [CNTN6_Y315_F314V] has a phosphorylation enrichment of 0.932.
Work on KVASVYEAPGF [NT5C_Y65] yielded a phosphorylation enrichment of 0.609.
Sequence LKMLVYLDMSK [LRRC7_Y234] has a phosphorylation enrichment of 1.24.
For QSSALYEDHFL [ASS1_Y83_R86H_YF], the phosphorylation enrichment was 0.898.
With HFGCIYHGTLL [MET_Y1093_V1092I] the phosphorylation enrichment was 1.38.
ERTIEYLEEVA [HADHA_Y239] was tested, and the phosphorylation enrichment was 1.2.
For FKEVVYQAMEE [TACC3_Y684_E680K], the phosphorylation enrichment was 1.04.
DGQVNYEGFVQ [CALM1_Y139_E141G] gave a phosphorylation enrichment of 1.04.
For TVHPGYGFLSE [PCCA_Y143_A138T], the phosphorylation enrichment was 0.676.
ASFPLYEPAKM [MKI67_Y340] showed a phosphorylation enrichment of 0.484.

Each sequence was assayed against MERTK (UniProt Q12866) in the same assay as above.
Sequence of MERTK (Q12866 whole entry, looked up): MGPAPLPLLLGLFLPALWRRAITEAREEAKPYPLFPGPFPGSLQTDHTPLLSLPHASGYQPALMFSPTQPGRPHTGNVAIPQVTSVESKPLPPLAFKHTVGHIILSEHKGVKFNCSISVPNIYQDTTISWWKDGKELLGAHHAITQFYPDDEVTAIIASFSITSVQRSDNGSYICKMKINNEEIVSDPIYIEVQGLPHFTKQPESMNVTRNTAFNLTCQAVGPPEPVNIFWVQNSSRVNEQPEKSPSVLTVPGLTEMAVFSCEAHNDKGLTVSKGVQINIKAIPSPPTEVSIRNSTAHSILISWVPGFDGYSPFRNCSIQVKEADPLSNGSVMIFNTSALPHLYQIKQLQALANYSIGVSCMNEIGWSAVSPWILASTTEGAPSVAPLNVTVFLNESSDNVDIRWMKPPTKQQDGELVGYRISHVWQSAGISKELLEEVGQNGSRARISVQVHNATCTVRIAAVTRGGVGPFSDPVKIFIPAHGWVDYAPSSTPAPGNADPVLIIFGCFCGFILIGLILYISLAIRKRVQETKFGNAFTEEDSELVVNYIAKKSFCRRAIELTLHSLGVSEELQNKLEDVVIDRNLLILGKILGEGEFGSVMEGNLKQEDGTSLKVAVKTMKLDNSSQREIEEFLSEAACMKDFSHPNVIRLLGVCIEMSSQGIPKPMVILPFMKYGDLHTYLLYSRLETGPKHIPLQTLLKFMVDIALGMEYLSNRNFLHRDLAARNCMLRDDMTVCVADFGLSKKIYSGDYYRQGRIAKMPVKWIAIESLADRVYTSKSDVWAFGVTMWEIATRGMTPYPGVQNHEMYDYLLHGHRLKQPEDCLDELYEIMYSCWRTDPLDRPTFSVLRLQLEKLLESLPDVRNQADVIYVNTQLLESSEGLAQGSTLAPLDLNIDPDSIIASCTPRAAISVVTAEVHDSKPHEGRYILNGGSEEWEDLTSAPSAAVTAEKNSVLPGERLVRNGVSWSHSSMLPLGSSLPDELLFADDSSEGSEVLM
EQLGEYKFQNA [ALB_Y425] showed a phosphorylation enrichment of 0.324.
QITQVCGFFDE [PPP2CA_Y127_Y127C_YF] gave a phosphorylation enrichment of 0.812.
For RHTRSYDFTEG [FGF7_Y56_M59T_YF], the phosphorylation enrichment was 0.35.
Sequence RLSVDYSKKSK [TUBA3E_Y161] has a phosphorylation enrichment of 0.461.
With LDFNEYFRGLN [HPRT1_Y198_D201G_YF] the phosphorylation enrichment was 0.714.
Sequence NFFDTCIKTCL [IQGAP2_Y1445_Y1445C_YF] has a phosphorylation enrichment of 0.523.
IGDENYGEGSS [ACO2_Y665] showed a phosphorylation enrichment of 0.586.
GIVEEYQLPFF [BMPR1A_Y453_YF] was tested, and the phosphorylation enrichment was 0.588.
MCITRYERESQ [PRNP_Y218_Q217R] gave a phosphorylation enrichment of 0.457.
KREPQYSSHSS [SIPA1L3_Y1265_G1261R] was tested, and the phosphorylation enrichment was 0.452.
TTKGSYSLSVR [HCK_Y180] gave a phosphorylation enrichment of 0.455.
AAYNKYDQERF [CDC73_Y293_R292K] gave a phosphorylation enrichment of 0.287.
Work on VSFGEYRFRSV [CFTR_Y515_D513G_YF] yielded a phosphorylation enrichment of 0.395.
In the case of LAARFYNWVCF [FLT4_Y1231_S1235C_YF], the phosphorylation enrichment is reported as 1.17.
Work on CTTVHYNFMCN [TP53_Y234_I232V_YF] yielded a phosphorylation enrichment of 0.384.
In the case of FSPFDYQPCLA [TNS1_Y798_YF], the phosphorylation enrichment is reported as 0.538.
WFQTKYEELQV [KRT6B_Y360_I365V_YF] showed a phosphorylation enrichment of 0.305.
For LPKDLYLISQM [LARP4_Y141_S137P], the phosphorylation enrichment was 0.785.
KLNNEHLELNY [MME_Y497_Y497H] showed a phosphorylation enrichment of 0.395.
Work on CTTTHYNYMCN [TP53_Y234_I232T] yielded a phosphorylation enrichment of 0.391.
Sequence CEAMEYPESKQ [BTK_Y511_L512P] has a phosphorylation enrichment of 0.46.
Sequence RARPPYTVAAD [ANKZF1_Y572] has a phosphorylation enrichment of 0.418.
In the case of MANYMYKAGPS [MAML2_Y515], the phosphorylation enrichment is reported as 0.584.
Work on GQLIVYAPPEW [CNTN6_Y315_F314V] yielded a phosphorylation enrichment of 1.37.
Sequence KVASVYEAPGF [NT5C_Y65] has a phosphorylation enrichment of 2.59.
Sequence LKMLVYLDMSK [LRRC7_Y234] has a phosphorylation enrichment of 0.545.
In the case of QSSALYEDHFL [ASS1_Y83_R86H_YF], the phosphorylation enrichment is reported as 2.51.
In the case of HFGCIYHGTLL [MET_Y1093_V1092I], the phosphorylation enrichment is reported as 0.527.
With ERTIEYLEEVA [HADHA_Y239] the phosphorylation enrichment was 0.541.
In the case of FKEVVYQAMEE [TACC3_Y684_E680K], the phosphorylation enrichment is reported as 1.62.
Work on DGQVNYEGFVQ [CALM1_Y139_E141G] yielded a phosphorylation enrichment of 0.453.
TVHPGYGFLSE [PCCA_Y143_A138T] showed a phosphorylation enrichment of 0.396.
ASFPLYEPAKM [MKI67_Y340] showed a phosphorylation enrichment of 3.18.

What follows are sequences tested on c-Abl (mouse) in the same assay as above.
EQLGEYKFQNA [ALB_Y425] gave a phosphorylation enrichment of 0.774.
QITQVCGFFDE [PPP2CA_Y127_Y127C_YF] showed a phosphorylation enrichment of 1.65.
With RHTRSYDFTEG [FGF7_Y56_M59T_YF] the phosphorylation enrichment was 0.563.
For RLSVDYSKKSK [TUBA3E_Y161], the phosphorylation enrichment was 0.433.
LDFNEYFRGLN [HPRT1_Y198_D201G_YF] gave a phosphorylation enrichment of 0.799.
NFFDTCIKTCL [IQGAP2_Y1445_Y1445C_YF] was tested, and the phosphorylation enrichment was 0.721.
In the case of IGDENYGEGSS [ACO2_Y665], the phosphorylation enrichment is reported as 0.882.
GIVEEYQLPFF [BMPR1A_Y453_YF] gave a phosphorylation enrichment of 2.24.
MCITRYERESQ [PRNP_Y218_Q217R] was tested, and the phosphorylation enrichment was 0.466.
In the case of KREPQYSSHSS [SIPA1L3_Y1265_G1261R], the phosphorylation enrichment is reported as 0.486.
In the case of TTKGSYSLSVR [HCK_Y180], the phosphorylation enrichment is reported as 0.624.
AAYNKYDQERF [CDC73_Y293_R292K] showed a phosphorylation enrichment of 0.588.
In the case of VSFGEYRFRSV [CFTR_Y515_D513G_YF], the phosphorylation enrichment is reported as 0.672.
Sequence LAARFYNWVCF [FLT4_Y1231_S1235C_YF] has a phosphorylation enrichment of 1.39.
With CTTVHYNFMCN [TP53_Y234_I232V_YF] the phosphorylation enrichment was 0.687.
FSPFDYQPCLA [TNS1_Y798_YF] showed a phosphorylation enrichment of 1.04.
WFQTKYEELQV [KRT6B_Y360_I365V_YF] was tested, and the phosphorylation enrichment was 0.712.
For LPKDLYLISQM [LARP4_Y141_S137P], the phosphorylation enrichment was 1.2.
Work on KLNNEHLELNY [MME_Y497_Y497H] yielded a phosphorylation enrichment of 0.58.
Work on CTTTHYNYMCN [TP53_Y234_I232T] yielded a phosphorylation enrichment of 0.484.
In the case of CEAMEYPESKQ [BTK_Y511_L512P], the phosphorylation enrichment is reported as 0.952.
RARPPYTVAAD [ANKZF1_Y572] gave a phosphorylation enrichment of 0.466.
Sequence MANYMYKAGPS [MAML2_Y515] has a phosphorylation enrichment of 1.04.
In the case of GQLIVYAPPEW [CNTN6_Y315_F314V], the phosphorylation enrichment is reported as 9.23.
Work on KVASVYEAPGF [NT5C_Y65] yielded a phosphorylation enrichment of 9.41.
In the case of LKMLVYLDMSK [LRRC7_Y234], the phosphorylation enrichment is reported as 1.18.
QSSALYEDHFL [ASS1_Y83_R86H_YF] was tested, and the phosphorylation enrichment was 1.04.
HFGCIYHGTLL [MET_Y1093_V1092I] showed a phosphorylation enrichment of 1.34.
Sequence ERTIEYLEEVA [HADHA_Y239] has a phosphorylation enrichment of 0.863.
In the case of FKEVVYQAMEE [TACC3_Y684_E680K], the phosphorylation enrichment is reported as 1.11.
Work on DGQVNYEGFVQ [CALM1_Y139_E141G] yielded a phosphorylation enrichment of 1.19.
For TVHPGYGFLSE [PCCA_Y143_A138T], the phosphorylation enrichment was 0.529.
Work on ASFPLYEPAKM [MKI67_Y340] yielded a phosphorylation enrichment of 0.635.
